Consider 2 molecules from article PMC4822050.

In data set [1] the target is T1, SRA-Spacer (human, UniProt Q96T88 414-674).
T1 sequence: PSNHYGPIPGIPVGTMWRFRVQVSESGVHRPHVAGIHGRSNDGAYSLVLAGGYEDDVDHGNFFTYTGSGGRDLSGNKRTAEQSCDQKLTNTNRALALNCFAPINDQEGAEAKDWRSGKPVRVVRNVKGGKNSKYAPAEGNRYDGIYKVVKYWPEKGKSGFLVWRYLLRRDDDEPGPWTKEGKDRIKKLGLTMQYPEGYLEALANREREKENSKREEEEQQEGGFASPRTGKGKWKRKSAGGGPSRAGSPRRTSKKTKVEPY
The experiment in a line: X-ray crystallography; 3.15 A; Spacer residues 617-674 not built; ITC: 10 mM HEPES pH 8.0, 100 mM NaCl, 18 C; EMSA: 20 mM HEPES pH 7.5, 100 mM NaCl, 8% glycerol, 1 mM DTT, on ice; pull-down: 20 mM HEPES-NaOH pH 8.0, 100 mM NaC. For orientation: Mobility shift assays separate free from complexed probe on a gel.

The target of data set [2] is T2, UHRF1 full-length (human, UniProt Q96T88 1-793).
T2 sequence: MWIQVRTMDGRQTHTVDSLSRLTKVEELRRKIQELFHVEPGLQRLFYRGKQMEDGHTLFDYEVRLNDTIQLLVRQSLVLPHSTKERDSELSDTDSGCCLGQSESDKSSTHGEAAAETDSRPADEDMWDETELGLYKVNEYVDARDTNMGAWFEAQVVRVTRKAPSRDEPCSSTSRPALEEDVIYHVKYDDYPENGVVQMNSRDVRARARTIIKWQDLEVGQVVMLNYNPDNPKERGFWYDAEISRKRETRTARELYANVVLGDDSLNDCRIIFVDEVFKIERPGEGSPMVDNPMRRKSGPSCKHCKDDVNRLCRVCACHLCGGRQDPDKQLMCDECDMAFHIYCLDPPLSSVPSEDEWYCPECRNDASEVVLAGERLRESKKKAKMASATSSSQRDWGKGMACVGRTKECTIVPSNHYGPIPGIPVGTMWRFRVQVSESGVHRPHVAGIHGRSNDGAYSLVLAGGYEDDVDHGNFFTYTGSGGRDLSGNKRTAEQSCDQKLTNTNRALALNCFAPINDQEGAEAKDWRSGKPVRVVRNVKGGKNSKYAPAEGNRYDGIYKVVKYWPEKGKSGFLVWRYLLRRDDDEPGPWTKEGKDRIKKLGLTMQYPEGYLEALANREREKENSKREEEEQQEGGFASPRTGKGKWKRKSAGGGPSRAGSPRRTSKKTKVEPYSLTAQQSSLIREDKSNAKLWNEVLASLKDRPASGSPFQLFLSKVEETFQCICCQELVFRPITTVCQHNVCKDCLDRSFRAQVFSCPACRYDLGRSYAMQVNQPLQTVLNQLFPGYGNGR
Put plainly: pull-down; H3 (1-17) peptide; affinity not affected; ITC: 10 mM HEPES pH 8.0, 100 mM NaCl, 18 C; EMSA: 20 mM HEPES pH 7.5, 100 mM NaCl, 8% glycerol, 1 mM DTT, on ice; pull-down: 20 mM HEPES-NaOH pH 8.0, 100 mM NaC.

B1: 18-bp hm-DNA (crystal) (dsDNA)
DNA 1: CATCGTCCCTGCGGGCCC
DNA 2: GGGCCCGCAGGGACGATG
modifications: 5-methyl-dC at position 6 of strand 2 (GGGCCXGCAGGGACGATG)
Regarding B1, the binding result in data set [1] is given as “binds”.

B2: biotin-hm-DNA 12 bp (pull-down) (dsDNA)
DNA 1: GAGGCCGCCTGC
DNA 2: GCAGGCGGCCTC
modifications: 5-methyl-dC at position 6 of strand 1 (GAGGCXGCCTGC)
With B2, the binding result in data set [2] is listed as “binds”.
